US20210371503A1

B1: MnC4t1p1_A10 (antibody, V domains shown)
VH: QLQVQESGPGLVKPSETLSLTCTVSGASISSNHYFWGWIRQPPGKGLAWIGSMHYSGSTYYNPSLKSRVTISVDTSKNQLSLKLSSVTAADTAVYYCARGVNYYDRNGYYRNDGFDIRGQGTMVTVSS
VL: DIQMTQSPSSLSASVGDRVTITCRASQGIRNDLGWYEQKPGKAPKRLIYAASSLESGVPSRFSGSGSGTEFTLTISSLQPEDFATYYCLQHNTYPFTFGPGTRVDIK
B2: MnC4t2p1_D10 (antibody, V domains shown)
VH: B1 VH
VL: B1 VL
B3: MnC4t2p1_F5 (antibody, V domains shown)
VH: B1 VH
VL: B1 VL

What follows are binders tested against SARS-CoV-2 (spike protein) antigen of the Euroimmun IgG detection kit (assay: Euroimmun IgG ELISA kit, antibody at 50 µg/ml [cont'd]).
B1 gave an IgG detection test of 4.87. In the case of B2, the IgG detection test is reported as 5.3. B3 showed an IgG detection test of 5.19.
